Like-named read-outs stand apart in the source and are kept apart here.

Assay [1] addresses Neuropilin-1 domains b1b2 (Nrp1-b1b2). The assay is described as follows: in vitro plate binding assay.
Assay [2] has the same target. In words: ITC. A general note: In ITC the heat of successive injections is recorded.
The target is the same in assay [3]. The assay is described as follows: in vitro plate binding assay. The source holds these as a separate data set.

Usually IC50 stands for the concentration that inhibits the measured activity by half. A lower IC50 goes with inhibition by little substance. For the molecule “Sema3E.3 peptide (Sema3E, furin cleavage site 3)”, the half-maximal inhibitory concentration (IC50) in assay [1] was 0.76 µM. That is a sub-micromolar value.
Still for that read-out and setting: to “Sema3A.2 peptide (Sema3A, furin cleavage site 2)” belongs 34 µM.
As usually defined, the Kd is the concentration at which binding is half-saturated. Low values mean a tighter complex, high ones a looser complex. One may read the stoichiometry N as a count of units in the complex or per binding partner. In assay [2], WDQKKPRNRR [Sema3F C-terminal peptide, wild type (S3F-RR)] registered a Kd of 33 µM, a dH of -18.5 kcal/mol and a stoichiometry N of 1. In assay [3], this molecule came in with an IC50 of 11 µM.
With WDQKKPRNPR [Sema3F C-terminal peptide, C-1 proline variant (S3F-PR)], in assay [2], the Ka was 101000 M⁻¹, the dissociation constant Kd amounted to 10 µM, the dH is -17 kcal/mol and the stoichiometry N is 1. The IC50 in assay [3] is 4.7 µM.
Molecule WDQKKPRNDR [Sema3F C-terminal peptide, C-1 aspartate variant (S3F-DR)] yielded an IC50 in assay [3] of 28 µM.

Values taken from publication PMC4038064.
